Values of other authors, collected in US5593962A, “Fibrillated calcitonin pharmaceutical compositions” (Ciba-Geigy Corporation, priority 1991, dated 1997).

What was measured:
[1] = physiological saline solutions or buffers

human calcitonin
stability in solution [1]: not stable
generation of neutralizing antibodies (after prolonged administration): not generating neutralizing antibodies
potency relative to salmon calcitonin (in vivo): less potent
